In article PMC7415141, “Identification and characterization of cytosolic malate dehydrogenase from the liver fluke Fasciola gigantica” (Scientific Reports, 2020) one finds stoichiometry N, Km and Vmax data, which are given here for two molecules.

In series [1] the target is cytosolic malate dehydrogenase from Fasciola gigantica (Fasciola gigantica). Description: SEC; gel filtration on Superdex 200 (AKTA FPLC), buffer B (50 mM phosphate pH 7.6, 150 mM NaCl, 10% glycerol), room temperature, 0.3 mL/min; column calibrated with mass standards; single peak at about 15.3 mL, ~72 kDa against ~36 kDa for the monomer. A general note: SEC sorts molecules by how far they enter the pores of the column.

Substrate in series [2]: NC(=O)c1ccc[n+]([C@@H]2O[C@H](COP(=O)(O)OP(=O)(O)OC[C@H]3O[C@@H](n4cnc5c(N)ncnc54)[C@H](O)[C@@H]3O)[C@@H](O)[C@H]2O)c1
Description: purified protein. In kind it is biochemical, Fasciola gigantica. Conditions: co-substrate malate (assay text: 3 mM, misprinted as MDH), 50 mM glycine buffer, pH 9.6, 25 °C, 50 nM enzyme, varied: cofactor.

Substrate in series [3]: O=C(O)C[C@H](O)C(=O)O
Description: purified protein. Conditions: co-substrate NAD+ (0.5 mM), 50 mM glycine buffer, pH 9.6, 25 °C, 50 nM enzyme. In kind it is biochemical, Fasciola gigantica.

Substrate in series [4]: NC(=O)C1=CN([C@@H]2O[C@H](COP(=O)(O)OP(=O)(O)OC[C@H]3O[C@@H](n4cnc5c(N)ncnc54)[C@H](O)[C@@H]3O)[C@@H](O)[C@H]2O)C=CC1
Description: purified protein. It counts as biochemical, Fasciola gigantica. Conditions: co-substrate oxaloacetate (0.2 mM), 50 mM Tris-Cl, pH 8.0, 25 °C, 50 nM enzyme, varied: cofactor.

Substrate in series [5]: O=C(O)CC(=O)C(=O)O
The experiment in a line: purified protein. Particulars: co-substrate NADH (0.21 mM), 50 mM Tris-Cl, pH 8.0, 25 °C, 50 nM enzyme. It counts as biochemical, Fasciola gigantica.

As usually defined, the stoichiometry N is a count of units in the complex or per binding partner. “cytosolic malate dehydrogenase from Fasciola gigantica (enzyme)” returned a stoichiometry N in series [1] of 2.

B1: FgMDH (cytosolic malate dehydrogenase of Fasciola gigantica) (Fasciola gigantica) (protein)
chain: MAPVKVLITGAAGQIGYNLAGMVARGDMLGPNQELILHLFDITPMLNSLHGLQMELDDCAFPLVREVVITDKAEVAFDDIDIALMVGAMPRKEGMERKDLLQANANIFKEQGKVLNEKAKKTVKVIVVGNPANTNALIMMKNAPSIPKENFSAMTRLDHNRATAQIAKRLKIPCTAVKNCVIWGNHSATQFPDVSHAVASIGGKDVKVWDAIKDEEWLKNEFVTTVQKRGAAVIAARKLSSAMSAAKAVVDHIHDWWYGTKPGEWVSMSVWSDGSYGAPVDVFFSFPVEIKDKKWTIVKDLSMDDWGKSMFKTTAEELSEEKVAALGK
notes: ~36 kDa, dimer ~72 kDa
As usually defined, the Km is the concentration of substrate that gives half-maximal velocity. One may read the Vmax as the top rate of the reaction or transport when substrate is in excess. With B1, the Km amounted to 309 ± 15 µM in series [2], 447 ± 47 µM in series [3], 141 ± 54 µM in series [4] and 276 ± 92 µM in series [5]. The maximal velocity (Vmax) in series [2] worked out at 18.7 µmol/min; in series [3], 5.45 µmol/min; in series [4] it was 3.42 µmol/min; in series [5], 4.1 µmol/min.
